Laboratory results: patent US20240261333A1, “NOVEL TARGETS FOR ENHANCING ANTI-TUMOR IMMUNITY” (THE BROAD INSTITUTE, INC., priority 2021, published 2024)

Key:
CALML5 (human) = CALML5 (human) (UniProt Q9NZT1); assay: control IP with IgG, lysate of cells with C-FLAG B3GNT2, mass spectrometry
CHCHD3 (human) = CHCHD3 (human) (UniProt Q9NX63); assay: as above
DDX1 (human) = DDX1 (human) (UniProt Q92499); assay: as above
EIF3A (human) = EIF3A (human) (UniProt Q14152); assay: as above
EMILIN1 (human) = EMILIN1 (human) (UniProt Q9Y6C2); assay: as above
FLG (human) = FLG (human) (UniProt P20930); assay: as above
GEMIN4 (human) = GEMIN4 (human) (UniProt P57678); assay: as above
GSN (human) = GSN (human) (UniProt P06396); assay: as above
HNRNPM (human) = HNRNPM (human) (UniProt P52272); assay: as above
IL13RA2 (human) = IL13RA2 (human) (UniProt Q14627); assay: as above
IMMT (human) = IMMT (human) (UniProt Q16891); assay: as above
KCTD5 (human) = KCTD5 (human) (UniProt Q9NXV2); assay: as above
LCN1 (human) = LCN1 (human) (UniProt P31025); assay: as above
LGALS7B (human) = LGALS7B (human) (UniProt P47929); assay: as above
MAP4 (human) = MAP4 (human) (UniProt P27816); assay: as above
PPFIBP1 (human) = PPFIBP1 (human) (UniProt Q86W92); assay: as above
RACK1 (human) = RACK1 (human) (UniProt P63244); assay: as above
RHOT2 (human) = RHOT2 (human) (UniProt Q8IXI1); assay: as above
RPL23 (human) = RPL23 (human) (UniProt P62829); assay: as above
RPL28 (human) = RPL28 (human) (UniProt P46779); assay: as above
RPL38 (human) = RPL38 (human) (UniProt P63173); assay: as above
RPL8 (human) = RPL8 (human) (UniProt P62917); assay: as above
RPS26 (human) = RPS26 (human) (UniProt P62854); assay: as above
RPS27A (human) = RPS27A (human) (UniProt P62979); assay: as above
S100A7 (human) = S100A7 (human) (UniProt P31151); assay: as above
SERPINB3 (human) = SERPINB3 (human) (UniProt P29508); assay: as above
SYNCRIP (human) = SYNCRIP (human) (UniProt O60506); assay: as above
SYNM (human) = SYNM (human) (UniProt O15061); assay: as above
SYNPO (human) = SYNPO (human) (UniProt Q8N3V7); assay: as above
TBL2 (human) = TBL2 (human) (UniProt Q9Y4P3); assay: as above
TELO2 (human) = TELO2 (human) (UniProt Q9Y4R8); assay: as above
TPM3 (human) = TPM3 (human) (UniProt P06753); assay: as above
CAPRIN1 (human) = CAPRIN1 (human) (UniProt Q14444); assay: IgG control IP from lysate of cells overexpressing C-FLAG B3GNT2, then mass spectrometry
CASC3 (human) = CASC3 (human) (UniProt O15234); assay: as above
CPSF6 (human) = CPSF6 (human) (UniProt Q16630); assay: as above
MAGED2 (human) = MAGED2 (human) (UniProt Q9UNF1); assay: as above
TIMP3 (human) = TIMP3 (human) (UniProt P35625); assay: as above
VIM (human) = VIM (human) (UniProt P08670); assay: as above

Sequence of LGALS7B (human) (P47929 whole entry): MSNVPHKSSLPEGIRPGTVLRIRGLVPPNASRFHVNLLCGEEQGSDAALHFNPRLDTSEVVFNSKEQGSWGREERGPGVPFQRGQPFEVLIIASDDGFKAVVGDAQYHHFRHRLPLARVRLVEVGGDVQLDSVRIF
Sequence of IL13RA2 (human) (Q14627 27-380 limits assumed): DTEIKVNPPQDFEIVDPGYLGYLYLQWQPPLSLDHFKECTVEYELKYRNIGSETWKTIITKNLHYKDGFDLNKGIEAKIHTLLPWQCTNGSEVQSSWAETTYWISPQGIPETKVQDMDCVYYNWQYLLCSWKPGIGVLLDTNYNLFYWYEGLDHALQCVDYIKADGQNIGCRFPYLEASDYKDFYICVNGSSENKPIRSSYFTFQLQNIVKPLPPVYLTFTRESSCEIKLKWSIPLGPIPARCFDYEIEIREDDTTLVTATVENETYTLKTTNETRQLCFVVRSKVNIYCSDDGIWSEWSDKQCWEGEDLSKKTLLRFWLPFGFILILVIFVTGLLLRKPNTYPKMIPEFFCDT
Sequence of HNRNPM (human) (P52272 2-730 limits assumed): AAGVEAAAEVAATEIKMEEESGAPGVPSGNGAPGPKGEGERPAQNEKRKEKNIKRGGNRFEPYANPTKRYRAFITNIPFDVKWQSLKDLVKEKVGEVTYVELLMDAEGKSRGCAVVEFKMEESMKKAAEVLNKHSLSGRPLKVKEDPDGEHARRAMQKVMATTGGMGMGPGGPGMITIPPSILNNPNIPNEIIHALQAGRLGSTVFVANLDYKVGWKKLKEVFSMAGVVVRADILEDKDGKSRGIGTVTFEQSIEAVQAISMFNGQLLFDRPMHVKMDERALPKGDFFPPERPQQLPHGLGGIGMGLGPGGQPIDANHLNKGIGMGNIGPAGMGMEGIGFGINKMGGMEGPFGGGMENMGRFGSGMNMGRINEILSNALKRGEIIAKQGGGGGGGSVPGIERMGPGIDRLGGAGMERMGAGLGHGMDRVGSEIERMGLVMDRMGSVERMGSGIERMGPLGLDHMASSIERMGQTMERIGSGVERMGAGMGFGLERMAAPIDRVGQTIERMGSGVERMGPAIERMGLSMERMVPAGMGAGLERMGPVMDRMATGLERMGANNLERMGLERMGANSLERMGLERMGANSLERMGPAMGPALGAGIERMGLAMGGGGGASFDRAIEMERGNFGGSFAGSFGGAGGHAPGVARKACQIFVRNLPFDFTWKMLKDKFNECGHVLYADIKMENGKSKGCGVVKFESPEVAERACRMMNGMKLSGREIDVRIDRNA
Sequence of SERPINB3 (human) (P29508 whole entry): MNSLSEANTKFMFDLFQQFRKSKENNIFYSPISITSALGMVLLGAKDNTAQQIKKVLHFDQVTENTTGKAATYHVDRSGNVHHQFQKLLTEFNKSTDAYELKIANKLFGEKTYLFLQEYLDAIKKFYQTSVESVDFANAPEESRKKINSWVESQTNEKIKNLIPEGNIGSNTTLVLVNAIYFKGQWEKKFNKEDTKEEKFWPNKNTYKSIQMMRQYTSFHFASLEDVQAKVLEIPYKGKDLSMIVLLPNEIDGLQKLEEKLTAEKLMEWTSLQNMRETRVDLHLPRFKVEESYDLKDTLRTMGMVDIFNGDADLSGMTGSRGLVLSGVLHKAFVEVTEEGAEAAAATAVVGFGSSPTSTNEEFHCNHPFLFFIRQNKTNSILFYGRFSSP
Sequence of CAPRIN1 (human) (Q14444 2-709 limits assumed): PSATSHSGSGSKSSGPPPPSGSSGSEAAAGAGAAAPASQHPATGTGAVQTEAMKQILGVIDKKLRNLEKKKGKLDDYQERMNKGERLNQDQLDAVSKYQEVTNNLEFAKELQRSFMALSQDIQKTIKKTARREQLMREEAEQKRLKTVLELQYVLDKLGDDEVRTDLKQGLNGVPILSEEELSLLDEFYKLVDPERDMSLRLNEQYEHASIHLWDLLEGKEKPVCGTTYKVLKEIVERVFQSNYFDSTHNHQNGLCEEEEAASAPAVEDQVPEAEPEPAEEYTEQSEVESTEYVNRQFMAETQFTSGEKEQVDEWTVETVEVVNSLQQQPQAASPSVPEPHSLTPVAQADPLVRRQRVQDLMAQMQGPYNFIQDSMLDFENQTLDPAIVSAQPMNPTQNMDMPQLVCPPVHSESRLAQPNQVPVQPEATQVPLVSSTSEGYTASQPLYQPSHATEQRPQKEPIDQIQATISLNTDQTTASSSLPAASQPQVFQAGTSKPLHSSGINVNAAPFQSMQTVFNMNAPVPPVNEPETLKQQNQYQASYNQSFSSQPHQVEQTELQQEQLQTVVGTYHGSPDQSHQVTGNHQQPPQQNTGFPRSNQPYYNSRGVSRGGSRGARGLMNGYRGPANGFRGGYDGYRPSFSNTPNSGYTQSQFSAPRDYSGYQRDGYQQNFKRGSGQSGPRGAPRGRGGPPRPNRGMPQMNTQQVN
Sequence of CALML5 (human) (Q9NZT1 2-146 limits assumed): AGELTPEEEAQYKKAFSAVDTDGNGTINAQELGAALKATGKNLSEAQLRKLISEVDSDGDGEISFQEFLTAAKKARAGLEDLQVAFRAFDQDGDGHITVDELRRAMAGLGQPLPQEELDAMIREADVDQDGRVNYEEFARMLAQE
Sequence of RHOT2 (human) (Q8IXI1 whole entry): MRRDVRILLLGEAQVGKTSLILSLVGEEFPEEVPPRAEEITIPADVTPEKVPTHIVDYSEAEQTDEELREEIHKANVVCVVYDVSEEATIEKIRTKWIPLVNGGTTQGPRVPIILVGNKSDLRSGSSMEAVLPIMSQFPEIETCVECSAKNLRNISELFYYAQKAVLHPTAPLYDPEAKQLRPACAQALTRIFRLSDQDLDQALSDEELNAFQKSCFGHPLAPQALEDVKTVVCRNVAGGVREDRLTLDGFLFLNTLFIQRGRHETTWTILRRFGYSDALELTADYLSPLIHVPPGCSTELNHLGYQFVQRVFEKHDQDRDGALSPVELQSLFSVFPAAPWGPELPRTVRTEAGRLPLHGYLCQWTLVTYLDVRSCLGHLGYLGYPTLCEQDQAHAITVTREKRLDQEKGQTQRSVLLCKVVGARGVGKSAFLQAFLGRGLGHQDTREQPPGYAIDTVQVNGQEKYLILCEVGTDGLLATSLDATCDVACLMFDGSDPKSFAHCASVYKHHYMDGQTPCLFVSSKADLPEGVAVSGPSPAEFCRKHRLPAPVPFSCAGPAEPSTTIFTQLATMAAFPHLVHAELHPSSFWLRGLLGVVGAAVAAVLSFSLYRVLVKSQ
Sequence of TIMP3 (human) (P35625 24-211 limits assumed): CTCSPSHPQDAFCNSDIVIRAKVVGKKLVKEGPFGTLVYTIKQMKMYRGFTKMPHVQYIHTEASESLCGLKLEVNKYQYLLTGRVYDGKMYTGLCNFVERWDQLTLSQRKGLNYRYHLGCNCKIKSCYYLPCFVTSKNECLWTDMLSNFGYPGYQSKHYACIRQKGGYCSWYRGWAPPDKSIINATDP
Sequence of CPSF6 (human) (Q16630 other isoform, or with tags, fused parts or gaps limits assumed): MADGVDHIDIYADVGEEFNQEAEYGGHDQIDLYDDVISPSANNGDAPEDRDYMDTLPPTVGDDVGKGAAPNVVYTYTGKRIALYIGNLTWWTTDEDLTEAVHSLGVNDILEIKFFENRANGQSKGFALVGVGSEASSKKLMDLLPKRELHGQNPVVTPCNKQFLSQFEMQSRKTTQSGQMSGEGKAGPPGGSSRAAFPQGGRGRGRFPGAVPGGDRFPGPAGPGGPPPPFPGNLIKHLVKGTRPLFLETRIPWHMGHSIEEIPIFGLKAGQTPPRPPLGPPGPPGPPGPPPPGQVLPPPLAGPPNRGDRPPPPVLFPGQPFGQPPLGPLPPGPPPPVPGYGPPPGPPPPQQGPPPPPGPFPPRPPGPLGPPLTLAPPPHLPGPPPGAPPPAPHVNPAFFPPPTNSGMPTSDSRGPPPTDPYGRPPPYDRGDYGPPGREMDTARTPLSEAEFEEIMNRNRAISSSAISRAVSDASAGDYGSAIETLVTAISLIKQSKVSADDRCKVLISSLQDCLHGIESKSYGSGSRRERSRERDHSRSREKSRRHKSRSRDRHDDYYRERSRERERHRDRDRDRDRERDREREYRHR
Sequence of GSN (human) (P06396 28-782 limits assumed): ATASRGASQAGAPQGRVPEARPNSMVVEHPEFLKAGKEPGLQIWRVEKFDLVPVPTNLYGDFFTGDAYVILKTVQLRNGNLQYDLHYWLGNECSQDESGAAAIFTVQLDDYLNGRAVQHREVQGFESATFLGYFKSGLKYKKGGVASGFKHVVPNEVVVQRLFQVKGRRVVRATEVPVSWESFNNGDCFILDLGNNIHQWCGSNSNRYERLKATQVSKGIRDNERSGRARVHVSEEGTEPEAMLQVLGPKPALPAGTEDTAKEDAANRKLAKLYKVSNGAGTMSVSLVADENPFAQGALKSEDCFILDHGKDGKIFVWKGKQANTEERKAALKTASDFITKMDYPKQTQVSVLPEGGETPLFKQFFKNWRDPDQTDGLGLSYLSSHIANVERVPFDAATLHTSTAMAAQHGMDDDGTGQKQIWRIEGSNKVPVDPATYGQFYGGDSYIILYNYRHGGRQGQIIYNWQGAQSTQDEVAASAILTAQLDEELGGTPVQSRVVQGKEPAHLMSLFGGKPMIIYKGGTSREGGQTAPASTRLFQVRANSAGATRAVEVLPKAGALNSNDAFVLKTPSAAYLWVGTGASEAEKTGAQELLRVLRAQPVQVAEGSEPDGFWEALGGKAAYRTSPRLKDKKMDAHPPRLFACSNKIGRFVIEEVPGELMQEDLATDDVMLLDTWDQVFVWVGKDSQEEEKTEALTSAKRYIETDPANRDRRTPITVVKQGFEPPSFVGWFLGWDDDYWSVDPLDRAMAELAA
Sequence of KCTD5 (human) (Q9NXV2 2-234 limits assumed): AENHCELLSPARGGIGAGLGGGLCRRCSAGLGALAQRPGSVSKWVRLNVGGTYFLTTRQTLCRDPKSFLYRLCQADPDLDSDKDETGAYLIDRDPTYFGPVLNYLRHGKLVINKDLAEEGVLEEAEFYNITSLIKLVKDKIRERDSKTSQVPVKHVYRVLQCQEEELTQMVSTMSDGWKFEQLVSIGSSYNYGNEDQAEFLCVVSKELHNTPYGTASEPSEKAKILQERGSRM
Sequence of S100A7 (human) (P31151 2-101 limits assumed): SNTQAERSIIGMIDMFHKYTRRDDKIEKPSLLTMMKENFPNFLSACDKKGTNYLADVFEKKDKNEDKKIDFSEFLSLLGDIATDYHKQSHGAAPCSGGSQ

## IgG control (Millipore Sigma 12-371) (antibody)
CALML5 (human)
  co-IP mass spectrometry count: 0
CHCHD3 (human)
  co-IP mass spectrometry count: 11
DDX1 (human)
  co-IP mass spectrometry count: 5
EIF3A (human)
  co-IP mass spectrometry count: 0
EMILIN1 (human)
  co-IP mass spectrometry count: 0
FLG (human)
  co-IP mass spectrometry count: 15
GEMIN4 (human)
  co-IP mass spectrometry count: 0
GSN (human)
  co-IP mass spectrometry count: 0
HNRNPM (human)
  co-IP mass spectrometry count: 5
IL13RA2 (human)
  co-IP mass spectrometry count: 0
IMMT (human)
  co-IP mass spectrometry count: 16
KCTD5 (human)
  co-IP mass spectrometry count: 0
LCN1 (human)
  co-IP mass spectrometry count: 6
LGALS7B (human)
  co-IP mass spectrometry count: 3
MAP4 (human)
  co-IP mass spectrometry count: 0
PPFIBP1 (human)
  co-IP mass spectrometry count: 0
RACK1 (human)
  co-IP mass spectrometry count: 0
RHOT2 (human)
  co-IP mass spectrometry count: 0
RPL23 (human)
  co-IP mass spectrometry count: 4
RPL28 (human)
  co-IP mass spectrometry count: 3
RPL38 (human)
  co-IP mass spectrometry count: 6
RPL8 (human)
  co-IP mass spectrometry count: 3
RPS26 (human)
  co-IP mass spectrometry count: 0
RPS27A (human)
  co-IP mass spectrometry count: 14
S100A7 (human)
  co-IP mass spectrometry count: 3
SERPINB3 (human)
  co-IP mass spectrometry count: 2
SYNCRIP (human)
  co-IP mass spectrometry count: 4
SYNM (human)
  co-IP mass spectrometry count: 2
SYNPO (human)
  co-IP mass spectrometry count: 4
TBL2 (human)
  co-IP mass spectrometry count: 0
TELO2 (human)
  co-IP mass spectrometry count: 0
TPM3 (human)
  co-IP mass spectrometry count: 2
CAPRIN1 (human)
  co-IP mass spectrometry count (C-term IgG): 6
CASC3 (human)
  co-IP mass spectrometry count (C-term IgG): 0
CPSF6 (human)
  co-IP mass spectrometry count (C-term IgG): 33
MAGED2 (human)
  co-IP mass spectrometry count (C-term IgG): 0
TIMP3 (human)
  co-IP mass spectrometry count (C-term IgG): 0
VIM (human)
  co-IP mass spectrometry count (C-term IgG): 337
